# B1: Hairpin Ribozyme (parent)
# chain: GUCCUCUUUCACGUGCGCGUGAAAGAGAGAAGUGAACCAGAGAAACACACGUUGUGGUAUAUUACCUGGUA
# Variants of: B1
# Test: self-cleavage, relative activity (ratio to wild type); higher = more cleavage; co-transcriptional
row,Variant,self-cleavage
1,GUCCUCUUUCACGUGCGCGUGAAAGAGAGAAGUGGACCAGAGAAACACACGCUGUGGUAUAUUACCUGGUA [A35G U52C],1.29
2,GUCCUCUUUCACGUGCGCGUGAAAGAGAGAAGUGGACCAGAGAAACACACGUUGAGGUAUAUUACCUGGUA [A35G U55A],0.292
3,GUCCUCUUUCACGUGCGCGUGAAAGAGAGAAGUGCACCAGAGAAACACAAGUUGUGGUAUAUUACCUGGUA [A35C C50A],0.364
4,GUCCUCUUUCACGUGCGCGUGAAAGAGAGAAGUGCACCAGAGAAACACACGUUGUAGUAUAUUACCUGGUA [A35C G56A],0.161
5,GUCCUCUUUCACGUGCGCGUGAAAGAGAGAAGUGCACCAGAGAAACACACGUUGUUGUAUAUUACCUGGUA [A35C G56U],0.153
6,GUCCUCUUUCACGUGCGCGUGAAAGAGAGAAGUGGACCAGAGAAACAGACGUUGUGGUAUAUUACCUGGUA [A35G C48G],0.213
7,GUCCUCUUUCACGUGCGCGUGAAAGAGAGAAGUGGACCAGUGAAACACACGUUGUGGUAUAUUACCUGGUA [A35G A41U],1.28
8,GUCCUCUUUCACGUGCGCGUGAAAGAGAGAAGUGGACCAGGGAAACACACGUUGUGGUAUAUUACCUGGUA [A35G A41G],0.814
9,GUCCUCUUUCACGUGCGCGUGAAAGAGAGAAGUGGACCAGAGAAACACACGUUGUGGUACAUUACCUGGUA [A35G U60C],0.917
10,GUCCUCUUUCACGUGCGCGUGAAAGAGAGAAGUGGACCAGAGAAACACACGUUGUGGUAUAUUACCUGGUU [A35G A71U],0.837
11,GUCCUCUUUCACGUGCGCGUGAAAGAGAGAAGUGUACCCGAGAAACACACGUUGUGGUAUAUUACCUGGUA [A35U A39C],0.208
12,GUCCUCUUUCACGUGCGCGUGAAAGAGAGAAGUGGACCAGAGAAACACACGUUGUGGUAUAUUACCUAGUA [A35G G68A],0.309
13,GUCCUCUUUCACGUGCGCGUGAAAGAGAGAAGUGGACCAGAGAAACACACGUUGUGGAAUAUUACCUGGUA [A35G U58A],0.73
14,GUCCUCUUUCACGUGCGCGUGAAAGAGAGAAGUGUACCAGAGGAACACACGUUGUGGUAUAUUACCUGGUA [A35U A43G],0.0794
15,GUCCUCUUUCACGUGCGCGUGAAAGAGAGAAGUGGACCAGAGAAACACACGUUGUGGUAUAUUACCUGGGA [A35G U70G],0.711
16,GUCCUCUUUCACGUGCGCGUGAAAGAGAGAAGUGGACCAGAGAAACACACGUUGUGGUAUAUUACCUGGCA [A35G U70C],0.796
17,GUCCUCUUUCACGUGCGCGUGAAAGAGAGAAGUGGACCAGAGAAACACACGUUGUGGUAUAUUACCUGGAA [A35G U70A],0.927
18,GUCCUCUUUCACGUGCGCGUGAAAGAGAGAAGUGGACCAGAGAAACACACGUUUUGGUAUAUUACCUGGUA [A35G G54U],0.513
19,GUCCUCUUUCACGUGCGCGUGAAAGAGAGAAGUGCACCAGAGAAACACACGAUGUGGUAUAUUACCUGGUA [A35C U52A],1.14
20,GUCCUCUUUCACGUGCGCGUGAAAGAGAGAAGUGGACCAGAGAAACACACGUUGUCGUAUAUUACCUGGUA [A35G G56C],0.0996
21,GUCCUCUUUCACGUGCGCGUGAAAGAGAGAAGUGCACCAGAGAAACACACGUUGUGGUAUAUUACCAGGUA [A35C U67A],0.301
22,GUCCUCUUUCACGUGCGCGUGAAAGAGAGAAGUGGACCAGAGAAACACAUGUUGUGGUAUAUUACCUGGUA [A35G C50U],0.355
23,GUCCUCUUUCACGUGCGCGUGAAAGAGAGAAGUGCACCAGAGAAACACACGUUGUGGUAUAUUAUCUGGUA [A35C C65U],0.433
24,GUCCUCUUUCACGUGCGCGUGAAAGAGAGAAGUGCACCAGAGAAACACACGUUGUGGUAUAUUAGCUGGUA [A35C C65G],0.387
25,GUCCUCUUUCACGUGCGCGUGAAAGAGAGAAGUGGACCAGAGAAACUCACGUUGUGGUAUAUUACCUGGUA [A35G A47U],0.178
26,GUCCUCUUUCACGUGCGCGUGAAAGAGAGAAGUGGACCAGAGAAACGCACGUUGUGGUAUAUUACCUGGUA [A35G A47G],0.142

row,Variant,self-cleavage
1,GUCCUCUUUCACGUGCGCGUGAAAGAGAGAAGUGGACCAGAGAAACCCACGUUGUGGUAUAUUACCUGGUA [A35G A47C],0.312
2,GUCCUCUUUCACGUGCGCGUGAAAGAGAGAAGUGGAUCAGAGAAACACACGUUGUGGUAUAUUACCUGGUA [A35G C37U],0.302
3,GUCCUCUUUCACGUGCGCGUGAAAGAGAGAAGUGGACCAGAGAAACACACGUUGUGGUAUAUUACGUGGUA [A35G C66G],0.127
4,GUCCUCUUUCACGUGCGCGUGAAAGAGAGAAGUGGACCAGAGAAACACACGUUGUGGUAUAUUACAUGGUA [A35G C66A],0.156
5,GUCCUCUUUCACGUGCGCGUGAAAGAGAGAAGUGUACCAGAGAAUCACACGUUGUGGUAUAUUACCUGGUA [A35U A45U],0.151
6,GUCCUCUUUCACGUGCGCGUGAAAGAGAGAAGUGGACCUGAGAAACACACGUUGUGGUAUAUUACCUGGUA [A35G A39U],0.265
7,GUCCUCUUUCACGUGCGCGUGAAAGAGAGAAGUGGACCAGAGAGACACACGUUGUGGUAUAUUACCUGGUA [A35G A44G],0.177
8,GUCCUCUUUCACGUGCGCGUGAAAGAGAGAAGUGGACCAGAGAUACACACGUUGUGGUAUAUUACCUGGUA [A35G A44U],0.14
9,GUCCUCUUUCACGUGCGCGUGAAAGAGAGAAGUGGACCAGAGACACACACGUUGUGGUAUAUUACCUGGUA [A35G A44C],0.211
10,GUCCUCUUUCACGUGCGCGUGAAAGAGAGAAGUGCACCAGAGAAAUACACGUUGUGGUAUAUUACCUGGUA [A35C C46U],0.221
11,GUCCUCUUUCACGUGCGCGUGAAAGAGAGAAGUGGACCAGAGAAACACACGUUGUGGUAUAUUACCAGGUA [A35G U67A],0.201
12,GUCCUCUUUCACGUGCGCGUGAAAGAGAGAAGUGGACCAGAGAAACACACGUUGUGGUAUAUUACCCGGUA [A35G U67C],0.0903
13,GUCCUCUUUCACGUGCGCGUGAAAGAGAGAAGUGGACCAGAGAAACACACGUUGUGGUAUAUUACCGGGUA [A35G U67G],0.206
14,GUCCUCUUUCACGUGCGCGUGAAAGAGAGAAGUGGGCCAGAGAAACACACGUUGUGGUAUAUUACCUGGUA [A35G A36G],0.749
15,GUCCUCUUUCACGUGCGCGUGAAAGAGAGAAGUGGACCAAAGAAACACACGUUGUGGUAUAUUACCUGGUA [A35G G40A],0.24
16,GUCCUCUUUCACGUGCGCGUGAAAGAGAGAAGUGGACCAUAGAAACACACGUUGUGGUAUAUUACCUGGUA [A35G G40U],0.161
17,GUCCUCUUUCACGUGCGCGUGAAAGAGAGAAGUGGACCAGAGAAACACACGUUGUGGUAUAAUACCUGGUA [A35G U62A],0.368
18,GUCCUCUUUCACGUGCGCGUGAAAGAGAGAAGUGGACCAGAGAAACACACGUUGUGGUAUACUACCUGGUA [A35G U62C],0.338
19,GUCCUCUUUCACGUGCGCGUGAAAGAGAGAAGUGGACCAGAGAAACACACGUUGUGGUAUAUUACCUGCUA [A35G G69C],0.204
20,GUCCUCUUUCACGUGCGCGUGAAAGAGAGAAGUGGACCAGAGAAACACACGUUGUGGUAUAUUACCUGAUA [A35G G69A],0.204
21,GUCCUCUUUCACGUGCGCGUGAAAGAGAGAAGUGGACCAGAGAAACACACGUUGUGGUAUAUUACCUGUUA [A35G G69U],0.285
22,GUCCUCUUUCACGUGCGCGUGAAAGAGAGAAGUGCACCAGAGAAACACACGUGGUGGUAUAUUACCUGGUA [A35C U53G],0.403
23,GUCCUCUUUCACGUGCGCGUGAAAGAGAGAAGUGGACCAGAGAAACACACGUUGUGGUUUAUUACCUGGUA [A35G A59U],0.229
24,GUCCUCUUUCACGUGCGCGUGAAAGAGAGAAGUGGACCAGAGAAACACACGUUGUGGUGUAUUACCUGGUA [A35G A59G],0.266
25,GUCCUCUUUCACGUGCGCGUGAAAGAGAGAAGUGUACCAGAGAAACACCCGUUGUGGUAUAUUACCUGGUA [A35U A49C],0.17
26,GUCCUCUUUCACGUGCGCGUGAAAGAGAGAAGUGUACCAGAGAAACACACGUUGUGGUAUUUUACCUGGUA [A35U A61U],0.0854

row,Variant,self-cleavage
1,GUCCUCUUUCACGUGCGCGUGAAAGAGAGAAGUGCACCAGAGAAACACACAUUGUGGUAUAUUACCUGGUA [A35C G51A],1.26
2,GUCCUCUUUCACGUGCGCGUGAAAGAGAGAAGUGUAGCAGAGAAACACACGUUGUGGUAUAUUACCUGGUA [A35U C37G],0.194
3,GUCCUCUUUCACGUGCGCGUGAAAGAGAGAAGUGGACCAGAGAAACACACGUUGUGGUAUAUUGCCUGGUA [A35G A64G],0.277
4,GUCCUCUUUCACGUGCGCGUGAAAGAGAGAAGUGCACCAGAGAAACACACGUUGUGGUAUAUUACCUGCUA [A35C G69C],0.126
5,GUCCUCUUUCACGUGCGCGUGAAAGAGAGAAGUGCACCAGAGAAACACACGUUGUGGUAUAUUACCUGAUA [A35C G69A],0.378
6,GUCCUCUUUCACGUGCGCGUGAAAGAGAGAAGUGCACCAGACAAACACACGUUGUGGUAUAUUACCUGGUA [A35C G42C],0.505
7,GUCCUCUUUCACGUGCGCGUGAAAGAGAGAAGUGUACCAGUGAAACACACGUUGUGGUAUAUUACCUGGUA [A35U A41U],1.41
8,GUCCUCUUUCACGUGCGCGUGAAAGAGAGAAGUGCACCAGAGAAACAAACGUUGUGGUAUAUUACCUGGUA [A35C C48A],0.103
9,GUCCUCUUUCACGUGCGCGUGAAAGAGAGAAGUGCACCAGAGAAACACACGUUGUGGUAUAUCACCUGGUA [A35C U63C],0.0565
10,GUCCUCUUUCACGUGCGCGUGAAAGAGAGAAGUGCACCAGAGAAACACACGUUCUGGUAUAUUACCUGGUA [A35C G54C],0.513
11,GUCCUCUUUCACGUGCGCGUGAAAGAGAGAAGUGGACCAGAGAAGCACACGUUGUGGUAUAUUACCUGGUA [A35G A45G],0.0332
12,GUCCUCUUUCACGUGCGCGUGAAAGAGAGAAGUGGACCAGAGAACCACACGUUGUGGUAUAUUACCUGGUA [A35G A45C],0.106
13,GUCCUCUUUCACGUGCGCGUGAAAGAGAGAAGUGGACCAGAUAAACACACGUUGUGGUAUAUUACCUGGUA [A35G G42U],0.304
14,GUCCUCUUUCACGUGCGCGUGAAAGAGAGAAGUGUACCAGAGAAACAAACGUUGUGGUAUAUUACCUGGUA [A35U C48A],0.186
15,GUCCUCUUUCACGUGCGCGUGAAAGAGAGAAGUGUACCAGAGAAACAGACGUUGUGGUAUAUUACCUGGUA [A35U C48G],0.215
16,GUCCUCUUUCACGUGCGCGUGAAAGAGAGAAGUGUACCAGAGAAACAUACGUUGUGGUAUAUUACCUGGUA [A35U C48U],0.162
17,GUCCUCUUUCACGUGCGCGUGAAAGAGAGAAGUGUACCAGAGAAACACACGUUGUGGUGUAUUACCUGGUA [A35U A59G],0.18
18,GUCCUCUUUCACGUGCGCGUGAAAGAGAGAAGUGUACCAGAGAGACACACGUUGUGGUAUAUUACCUGGUA [A35U A44G],0.234
19,GUCCUCUUUCACGUGCGCGUGAAAGAGAGAAGUGCACCAAAGAAACACACGUUGUGGUAUAUUACCUGGUA [A35C G40A],0.208
20,GUCCUCUUUCACGUGCGCGUGAAAGAGAGAAGUGUACCAGAGAAACACAAGUUGUGGUAUAUUACCUGGUA [A35U C50A],0.295
21,GUCCUCUUUCACGUGCGCGUGAAAGAGAGAAGUGUACCAGAGAAACGCACGUUGUGGUAUAUUACCUGGUA [A35U A47G],0.137
22,GUCCUCUUUCACGUGCGCGUGAAAGAGAGAAGUGUACCAGAGAAACUCACGUUGUGGUAUAUUACCUGGUA [A35U A47U],0.185
23,GUCCUCUUUCACGUGCGCGUGAAAGAGAGAAGUGGACCAGAGGAACACACGUUGUGGUAUAUUACCUGGUA [A35G A43G],0.082
24,GUCCUCUUUCACGUGCGCGUGAAAGAGAGAAGUGGACCAGAGUAACACACGUUGUGGUAUAUUACCUGGUA [A35G A43U],0.223

# From the RNAGym collection of RNA variant scans (doi:10.7554/elife.80360)
